Results reported in patent US20170073690A1 (CEMM FORSCHUNGZENTRUM FUER MOLEKULARE MEDIZIN, published 2017).
Residue numbers refer to the chain shown, from its start.

T1: SLC38A2 (human, UniProt Q96QD8 1-506)
T1 construct: N-terminally SII-HA tagged bait
T1 sequence (looked up): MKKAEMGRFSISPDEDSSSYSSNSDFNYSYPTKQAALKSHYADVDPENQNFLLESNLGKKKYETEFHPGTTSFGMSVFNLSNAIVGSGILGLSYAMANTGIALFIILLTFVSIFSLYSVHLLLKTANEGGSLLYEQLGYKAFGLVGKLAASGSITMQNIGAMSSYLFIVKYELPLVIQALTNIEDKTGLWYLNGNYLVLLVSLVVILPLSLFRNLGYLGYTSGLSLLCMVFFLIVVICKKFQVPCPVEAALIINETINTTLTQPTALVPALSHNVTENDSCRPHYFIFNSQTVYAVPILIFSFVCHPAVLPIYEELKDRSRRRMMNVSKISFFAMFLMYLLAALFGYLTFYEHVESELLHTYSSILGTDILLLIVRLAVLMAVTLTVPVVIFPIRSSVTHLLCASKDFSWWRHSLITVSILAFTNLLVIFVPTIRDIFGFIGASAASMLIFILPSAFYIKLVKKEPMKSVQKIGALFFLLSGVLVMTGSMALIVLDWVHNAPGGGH

B1: RAGD (enzyme, human, UniProt Q9NQL2 1-400, looked up)
chain: MSQVLGKPQPQDEDDAEEEEEEDELVGLADYGDGPDSSDADPDSGTEEGVLDFSDPFSTEVKPRILLMGLRRSGKSSIQKVVFHKMSPNETLFLESTNKICREDVSNSSFVNFQIWDFPGQIDFFDPTFDYEMIFRGTGALIFVIDSQDDYMEALARLHLTVTRAYKVNTDINFEVFIHKVDGLSDDHKIETQRDIHQRANDDLADAGLEKIHLSFYLTSIYDHSIFEAFSKVVQKLIPQLPTLENLLNIFISNSGIEKAFLFDVVSKIYIATDSTPVDMQTYELCCDMIDVVIDISCIYGLKEDGAGTPYDKESTAIIKLNNTTVLYLKEVTKFLALVCFVREESFERKGLIDYNFHCFRKAIHEVFEVRMKVVKSRKVQNRLQKKKRATPNGTPRVLL
notes: Named in the results only as one of the four RAG GTPases; also called RAG GTPase D
B2: full length SLC38A9 with motif 38RPF40 mutated to alanine (other)
chain: MANMNSDSRHLGTSEVDHERDPGPMNIQFEPSDLRSKAAACIEPTNIVNVNHVIQRVSDHASAMNKRIHYYSRLTTPADKALIAPDHVVPAPEECYVYSPLGSAYKLQSYTEGYGKNTSLVTIFMIWNTMMGTSILSIPWGIKQAGFTTGMCVIILMGLLTLYCCYRVVKSRTMMFSLDTTSWEYPDVCRHYFGSFGQWSSLLFSLVSLIGAMIVYWVLMSNFLFNTGKFIFNFIHHINDTDTILSTNNSNPVICPSAGSGGHPDNSSMIFYANDTGAQQFEKWWDKSRTVPFYLVGLLLPLLNFKSPSFFSKFNILGTVSVLYLIFLVTFKAVRLGFHLEFHWFIPTEFFVPEIRFQFPQLTGVLTLAFFIHNCIITLLKNNKKQENNVRDLCIAYMLVTLTYLYIGVLVFASFPSPPLSKDCIEQNFLDNFPSSDTLSFIARIFLLFQMMTVYPLLGYLARVQLLGHIFGDIYPSIFHVLILNLIIVGAGVIMACFYPNIGGIIRYSGAACGLAFVFIYPSLIYIISLHQEERLTWPKLIFHVFIIILGVANLIVQFFM
notes: also called 38RPF40 mutant (full length); not shown: N-terminal HA-containing tag
B3: full length SLC38A9 with motif 85PDH87 mutated to alanine (other)
chain: B2 chain with A38R, A39P, A40F, P85A, D86A, H87A
notes: also called 85PDH87 mutant (full length); not shown: N-terminal HA-containing tag
B4: full length SLC38A9 with motif 70YYSR73 mutated to alanine (other)
chain: B2 chain with A38R, A39P, A40F, Y70A, Y71A, S72A, R73A
notes: also called 70YYSR73 mutant (full length); not shown: N-terminal HA-containing tag
B5: SLC38A1 (other)
chain: MMHFKSGLELTELQNMTVPEDDNISNDSNDFTEVENGQINSKFISDRESRRSLTNSHLEKKKCDEYIPGTTSLGMSVFNLSNAIMGSGILGLAFALANTGILLFLVLLTSVTLLSIYSINLLLICSKETGCMVYEKLGEQVFGTTGKFVIFGATSLQNTGAMLSYLFIVKNELPSAIKFLMGKEETFSAWYVDGRVLVVIVTFGIILPLCLLKNLGYLGYTSGFSLSCMVFFLIVVIYKKFQIPCIVPELNSTISANSTNADTCTPKYVTFNSKTVYALPTIAFAFVCHPSVLPIYSELKDRSQKKMQMVSNISFFAMFVMYFLTAIFGYLTFYDNVQSDLLHKYQSKDDILILTVRLAVIVAVILTVPVLFFTVRSSLFELAKKTKFNLCRHTVVTCILLVVINLLVIFIPSMKDIFGVVGVTSANMLIFILPSSLYLKITDQDGDKGTQRIWAALFLGLGVLFSLVSIPLVIYDWACSSSSDEGH
notes: N-terminally SII-HA tagged bait
B6: SLC38A9 N-terminal cytoplasmic tail deletion construct (amino acids 1-111, or amino acids 1-112) (other)
chain: MANMNSDSRHLGTSEVDHERDPGPMNIQFEPSDLRSKRPFCIEPTNIVNVNHVIQRVSDHASAMNKRIHYYSRLTTPADKALIAPDHVVPAPEECYVYSPLGSAYKLQSYTE
notes: also called cytoplasmic region of SLC38A9; not shown: N-terminal HA-containing tag (Strep-HA, vector pTO-SII-HA-GW)
B7: SLC38A9 cytoplasmic region with motif 85PDH87 mutated to alanine (other)
chain: B6 chain with P85A, D86A, H87A
notes: also called 85PDH87 mutant (cytoplasmic region); not shown: N-terminal HA-containing tag
B8: SLC38A9 cytoplasmic region with motif 70YYSR73 mutated to alanine (other)
chain: B6 chain with Y70A, Y71A, S72A, R73A
notes: also called 70YYSR73 mutant (cytoplasmic region); not shown: N-terminal HA-containing tag
B9: SLC38A9 cytoplasmic region with motif 38RPF40 mutated to alanine (other)
chain: B6 chain with R38A, P39A, F40A
notes: also called 38RPF40 mutant (cytoplasmic region); not shown: N-terminal HA-containing tag

Assays:
SLC38A2 = biological target: T1, SLC38A2; assay: TAP-LC-MS/MS, SII-HA-tagged bait, HEK293 Flp-In TREx cells
Experimental: (§1) Tandem affinity STREP-HA purifications were performed as previously described³. In brief, cells were stimulated with doxycycline/tetracycline for 24 h to induce expression of SII-HA-tagged bait proteins. Induction of SII-HA-LAMTOR 3 was combined with 9 h starvation in serum free medium. Protein complexes were isolated by TAP using streptavidin agarose followed by elution with biotin, and a second purification step using HA-agarose beads. Proteins were eluted with 100 mM formic acid, neutralized with triethylammonium bicarbonate (TEAB) and digested with trypsin, and the peptides were analysed by LC-MS/MS.

SLC38A1 = biological target: B5; assay: as above
Experimental: as §1

LAMTOR3 [1] = biological target: T2, LAMTOR3 (human, UniProt Q9UHA4 1-124, limits assumed); assay: anti-HA co-IP of tagged full length point mutant from HEK293T, immunoblot (FIG. 9C)
T2 construct: also called SII-HA-LAMTOR 3

RAGC [2] = biological target: T3, RAGC (human, UniProt Q9HB90 1-399); assay: as above
T3 construct: Endogenous, or N-terminally tagged as bait; also called RAG GTPase C

RAGA [3] = biological target: T4, RAGA (human, UniProt Q7L523 1-313); assay: as above
T4 construct: Endogenous, or N-terminally tagged as bait; RAG GTPases act as heterodimers of RAGA/B with RAGC/D; also called RAG GTPase A

LAMTOR1 [4] = biological target: T5, LAMTOR1 (human, UniProt Q6IAA8 2-161); assay: as above
T5 construct: Endogenous in HEK293/HEK293T cells, or C-terminally tagged (V5 or SII-HA) when used as bait

LAMTOR4 = LAMTOR4 (human, UniProt Q0VGL1 1-99); assay: TAP-LC-MS/MS, SII-HA-tagged bait, HEK293 Flp-In TREx cells
Experimental: as §1

LAMTOR5 = LAMTOR5 (human, UniProt O43504 1-91); assay: as above
Experimental: as §1

RAGA [5] = biological target: T4, RAGA; assay: anti-HA co-IP of tagged deletion construct from HEK293T, immunoblot (FIG. 2D)
Source text: (§2) Proteins filtered using SAINT³⁵ that interacted with at least five bait proteins were retained. Previously published interactors of the Ragulator complex and RAG GTPases that were also detected are highlighted. b, Tabular view of spectral counts (maximum of biological replicate) and sequence coverage (percentage) of the core Ragulator network and published interactors detected. c HEK293T cells were transfected with the indicated constructs or empty vector (−). […] Anti-HA immunoprecipitates and cell extracts were analysed by immunoblot with the indicated antibodies. Deletion constructs are labelled with the number of the encoded amino acids (d) and point mutants with the amino acid motif substituted to alanine (e).
(§3) Cells were transfected with Polyfect (Qiagen) and used for experiments after 24 hours. For lysis, cells were resuspended in Nonidet-40 lysis buffer (1% NP-40, 50 mM Hepes pH7.4, 250 mM NaCl, 5 mM EDTA, Halt phosphatase inhibitor cocktail (ThermoScientific), one tablet of EDTA-free protease inhibitor (Roche) per 50 ml) on ice for 5 min. Lysates were cleared by centrifugation in a microcentrifuge (13000 r.p.m., 10 min, 4 C). Proteins were quantified with BCA (Pierce). […]

LAMTOR1 [6] = biological target: T5, LAMTOR1; assay: as above
Source text: as §2, §3

LAMTOR3 [7] = biological target: T2, LAMTOR3; assay: anti-HA co-IP of tagged point mutant from HEK293T, immunoblot (FIG. 2E)
Source text: as §2
(§4) Cells were transfected with Polyfect (Qiagen) and used for experiments after 24 hours. For lysis, cells were resuspended in Nonidet-40 lysis buffer (1% NP-40, 50 mM Hepes pH7.4, 250 mM NaCl, 5 mM EDTA, Halt phosphatase inhibitor cocktail (ThermoScientific), one tablet of EDTA-free protease inhibitor (Roche) per 50 ml) on ice for 5 min. Lysates were cleared by centrifugation in a microcentrifuge (13000 r.p.m., 10 min, 4 C). Proteins were quantified with BCA (Pierce). For immunoprecipitations, lysates were precleared on Sepharose6 beads (Sigma) (40 min. with rotation, 4° C.) and then incubated either with HA- or V5-coupled beads (3 h with rotation, 4° C.) or with primary antibody and protein G-sepharose (GE healthcare) (14 h with rotation, 4° C.). Beads were recovered and washed four times with lysis buffer before analysis by SDS-PAGE and immunoblotting.

RAGC [8] = biological target: T3, RAGC; assay: as above
Source text: as §2, §4

RAGA [9] = biological target: T4, RAGA; assay: as above
Source text: as §2, §4

LAMTOR1 [10] = biological target: T5, LAMTOR1; assay: as above
Source text: as §2, §4

T3 sequence (Q9HB90 whole entry): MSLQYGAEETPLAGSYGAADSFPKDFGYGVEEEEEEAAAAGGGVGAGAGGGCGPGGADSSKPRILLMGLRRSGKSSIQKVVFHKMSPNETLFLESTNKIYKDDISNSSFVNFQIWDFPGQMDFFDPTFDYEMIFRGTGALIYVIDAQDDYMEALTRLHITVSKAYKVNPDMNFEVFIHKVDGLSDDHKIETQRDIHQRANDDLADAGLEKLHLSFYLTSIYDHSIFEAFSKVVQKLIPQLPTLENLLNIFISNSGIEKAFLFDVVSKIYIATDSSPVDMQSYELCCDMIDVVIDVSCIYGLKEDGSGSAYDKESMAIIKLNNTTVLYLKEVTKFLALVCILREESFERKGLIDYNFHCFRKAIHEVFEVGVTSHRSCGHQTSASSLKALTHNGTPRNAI
T5 sequence (Q6IAA8 2-161 limits assumed): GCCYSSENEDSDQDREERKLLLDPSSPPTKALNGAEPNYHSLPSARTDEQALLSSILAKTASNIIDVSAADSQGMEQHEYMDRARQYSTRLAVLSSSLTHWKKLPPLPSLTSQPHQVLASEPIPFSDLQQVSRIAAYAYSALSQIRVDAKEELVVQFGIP
T2 sequence (Q9UHA4 whole entry): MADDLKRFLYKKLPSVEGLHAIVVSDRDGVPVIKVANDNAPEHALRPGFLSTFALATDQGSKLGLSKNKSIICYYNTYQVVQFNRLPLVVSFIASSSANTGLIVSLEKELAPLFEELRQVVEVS
T4 sequence (Q7L523 whole entry): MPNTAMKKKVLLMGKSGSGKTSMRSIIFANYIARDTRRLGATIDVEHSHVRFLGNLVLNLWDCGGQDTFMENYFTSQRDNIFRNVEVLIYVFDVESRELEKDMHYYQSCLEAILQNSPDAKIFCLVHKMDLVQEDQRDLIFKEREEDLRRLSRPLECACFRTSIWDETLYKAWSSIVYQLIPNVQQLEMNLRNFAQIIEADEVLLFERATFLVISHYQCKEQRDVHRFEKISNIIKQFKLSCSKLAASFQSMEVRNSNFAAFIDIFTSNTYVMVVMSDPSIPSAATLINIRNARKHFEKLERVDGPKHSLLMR

binding result (LAMTOR3 [1])	binding result (RAGC [2])	binding result (RAGA [3])	binding result (LAMTOR1 [4])	binding result (LAMTOR3 [7])	binding result (RAGC [8])	binding result (RAGA [9])	binding result (LAMTOR1 [10])	Binder	other results
–	–	–	–	–	–	–	–	B1	binding result (SLC38A2): no binding; binding result (SLC38A1): no binding
no binding	no binding	no binding	no binding	–	–	–	–	B2	–
no binding	no binding	no binding	no binding	–	–	–	–	B3	–
no binding	no binding	no binding	no binding	–	–	–	–	B4	–
–	–	–	–	–	–	–	–	B5	binding result (LAMTOR4): no binding; binding result (LAMTOR5): no binding
–	–	–	–	–	–	–	–	B6	binding result (RAGA [5]): binds; binding result (LAMTOR1 [6]): binds
–	–	–	–	no binding	no binding	no binding	no binding	B7	–
–	–	–	–	no binding	no binding	no binding	no binding	B8	–
–	–	–	–	no binding	no binding	no binding	no binding	B9	–
